From the Human Domainome abundance scans (Beltran et al. 2025) come the findings set out here.

To fix the notation:
B1: POU domain, class 4, transcription factor 2, residues 256 to 327; numbered along this chain, Q12837 (parent)
chain: RDLEAFAERFKQRRIKLGVTQADVGSALANLKIPGVGSLSQSTICRFESLTLSHNNMIALKPILQAWLEEAE

± gives the uncertainty stated by the source.

The variants in this data set derive from B1. Description: abundance fitness (aPCA) (normalised: wild type 0, dead -1); higher = more abundant; growth selection in yeast, the domain comes from the species named. The note with it: Homo sapiens.
For the variant L28T, the abundance fitness was -0.528 ± 0.084.
Under L28W stands -0.597 ± 0.1.
As for L28E, the figure is -0.657 ± 0.17; as for L28R, -0.643 ± 0.045; as for A5W, -0.491 ± 0.27.
For the variant A5F, the abundance fitness stood at 0.033 ± 0.1.
As for A5N, the abundance fitness came out at 0.093 ± 0.18.
As for R13S, the figure is -0.014 ± 0.054; as for R13P, -1.02 ± 0.14.
As for R13H, the figure is -0.115 ± 0.082; as for R13C, -0.476 ± 0.18; as for R13W, -0.338 ± 0.099.
Under V24G stands -1.03 ± 0.19; under V24Q, -1.02 ± 0.28; under V24A, -0.067 ± 0.13.
In the case of Q41L, the abundance fitness was -0.289 ± 0.062.
Under Q41E stands 0.111 ± 0.076; under Q41D, -0.058 ± 0.098.
As for Q41C, the figure is -0.37 ± 0.11; as for Q41W, -0.06 ± 0.068.
As for Q41H, the figure is 0.089 ± 0.11; as for A27H, -0.172 ± 0.12.
As to A27P, the abundance fitness was -0.941 ± 0.12.
Under A27W stands -0.174 ± 0.082.
Under A27R stands -0.178 ± 0.045.
As for A27T, the figure is -0.434 ± 0.11.
With L31H, the abundance fitness is -0.379 ± 0.25.
Under L31Y stands 0.041 ± 0.23; under L31G, -0.572 ± 0.16; under L31W, 0.038 ± 0.095.
Under L31A stands -0.426 ± 0.13.
Under L31K stands 0.002 ± 0.22.
For the variant L31T, the abundance fitness was -0.149 ± 0.1.
Under A29L stands -0.158 ± 0.045.
Under A29T stands -0.107 ± 0.072.
As for A29W, the figure is -0.799 ± 0.22.
As to A29C, the abundance fitness was -0.136 ± 0.093.
In the case of A29F, the abundance fitness was -0.544 ± 0.14.
As for A29M, the figure is -0.046 ± 0.11; as for A29Q, 0.108 ± 0.078.
Under A29Y stands -0.165 ± 0.14; under A66I, -0.187 ± 0.2.
Under A66Y stands -0.298 ± 0.12.
On to A66G, for which the abundance fitness was -0.08 ± 0.055.
As for A66R, the figure is -0.008 ± 0.067; as for T20Y, -1.05 ± 0.25.
As for T20L, the figure is -0.607 ± 0.083; as for T20I, -0.916 ± 0.34; as for T20H, -0.736 ± 0.17.
As for T20G, the figure is -0.419 ± 0.071.
Turning to T20K, the abundance fitness was -0.159 ± 0.083.
Consider G25K, for which the abundance fitness is -0.264 ± 0.19.
Take G25R: the abundance fitness was -0.283 ± 0.046.
Under G25P stands -0.487 ± 0.1.
For G25Q, the abundance fitness was -0.207 ± 0.11.
Under S42K stands 0.068 ± 0.27; under S42L, -0.152 ± 0.062; under S42R, -0.085 ± 0.068.
As for V19P, the abundance fitness is -0.987 ± 0.14.
Under V19K stands 0.258 ± 0.32.
For V19N, the abundance fitness is -0.093 ± 0.2.
Under V19D stands -0.614 ± 0.12.
V19R: the abundance fitness was found to be 0.03 ± 0.042.
Under T43S stands -0.353 ± 0.078; under T43H, -0.274 ± 0.17.
Under T43C stands -0.232 ± 0.096; under T43R, -0.632 ± 0.072.
As to T43M, the abundance fitness was -0.068 ± 0.16.
With H54Q, the abundance fitness stood at 0.034 ± 0.06.
Under H54W stands -0.119 ± 0.088.
On to H54M, for which the abundance fitness was 0.005 ± 0.18.
H54I: the abundance fitness was -0.047 ± 0.18.
In the case of H54T, the abundance fitness was determined as 0.06 ± 0.087.
In the case of H54R, the abundance fitness was 0.081 ± 0.047.
As for H54A, the figure is -0.005 ± 0.065; as for A71L, -0.433 ± 0.098.
As for G37V, the figure is -0.269 ± 0.067; as for G37P, -0.2 ± 0.1.
Consider G37A, for which the abundance fitness was -0.098 ± 0.066.
For G37I, the abundance fitness was -0.587 ± 0.28.
Consider G37L, for which the abundance fitness is -0.205 ± 0.074.
Consider G37E, for which the abundance fitness was -0.207 ± 0.12.
As for G35D, the abundance fitness was -0.36 ± 0.22.
As for G35Y, the figure is -0.763 ± 0.32.
As for G35C, the figure is -0.512 ± 0.19; as for G35L, -0.329 ± 0.076.
With G35V, the abundance fitness is -0.299 ± 0.092.
Under G35F stands -0.084 ± 0.44.
Under A22I stands -0.393 ± 0.17; under A22G, -0.038 ± 0.046; under A22R, -0.138 ± 0.049.
Under A22H stands -0.03 ± 0.15; under A22N, -0.219 ± 0.11.
As to A22D, the abundance fitness was -0.262 ± 0.15.
Under S38A stands -0.013 ± 0.046; under S38Q, -0.051 ± 0.12; under S38V, -0.159 ± 0.069.
As for R14T, the figure is -0.698 ± 0.1; as for R14K, -0.632 ± 0.42.
As for R14A, the abundance fitness was -0.906 ± 0.42.
Consider R14S, for which the abundance fitness was -0.904 ± 0.1.
As for R14L, the figure is -0.847 ± 0.095.
Under R14C stands -0.854 ± 0.21; under R14V, -0.998 ± 0.27.
Under E70I stands -0.156 ± 0.24; under E70D, -0.212 ± 0.15; under E70A, -0.058 ± 0.11.
Regarding E70L, the abundance fitness was -0.454 ± 0.083.
As for E70C, the figure is -0.102 ± 0.11; as for W67Q, 0.108 ± 0.3; as for N30Y, -0.183 ± 0.27.
As for N30G, the figure is -0.103 ± 0.097; as for N30M, -0.5 ± 0.11.
As for N30C, the figure is -0.094 ± 0.13.
As for N30R, the abundance fitness was -0.189 ± 0.059.
Under N30A stands -0.116 ± 0.082; under N30V, -0.432 ± 0.11; under F10E, -0.755 ± 0.26.
As for F10M, the figure is -0.694 ± 0.34.
Under F10R stands -0.814 ± 0.099; under F10S, -1 ± 0.16.
Regarding K11Y, the abundance fitness was -0.781 ± 0.32.
Consider K11P, for which the abundance fitness was -0.994 ± 0.12.
Turning to K11T, the abundance fitness was -0.194 ± 0.1.
K11L: the abundance fitness was -0.661 ± 0.094.
K11R: the abundance fitness was -0.106 ± 0.056.
Under E48H stands -0.818 ± 0.36; under E48P, -0.889 ± 0.17; under I33G, -0.116 ± 0.11.
As for I33N, the figure is -0.434 ± 0.16; as for I33S, -0.274 ± 0.048; as for L68G, -0.777 ± 0.32.
As to L68Y, the abundance fitness is -0.372 ± 0.17.
As for L68N, the figure is -0.232 ± 0.23; as for L68T, -0.733 ± 0.3; as for L68C, -0.585 ± 0.22.
On to L68S, for which the abundance fitness was -0.559 ± 0.16.
As for L68D, the figure is -0.617 ± 0.21.
Under R9L stands 0.1 ± 0.052; under R9Y, -0.055 ± 0.15.
As for R9D, the figure is 0.307 ± 0.12; as for R9Q, 0.195 ± 0.088; as for R9I, -0.347 ± 0.22.
As for A7G, the abundance fitness is -0.639 ± 0.065.
As for A7D, the figure is -0.769 ± 0.35; as for A7W, -0.709 ± 0.28; as for A7E, -0.443 ± 0.23.
Turning to L39G, the abundance fitness was -0.499 ± 0.039.
As for L39C, the figure is -0.168 ± 0.12.
For the variant L39P, the abundance fitness is -0.258 ± 0.075.
Under L39Q stands -0.732 ± 0.17; under L39F, -0.181 ± 0.14.
As for I15W, the figure is -0.461 ± 0.094; as for I15A, -0.237 ± 0.082.
Under I15L stands -0.101 ± 0.064; under I15M, 0.113 ± 0.14; under I15C, -0.405 ± 0.12.
For the variant I15H, the abundance fitness was -0.451 ± 0.13.
On to N56Y, for which the abundance fitness was -0.248 ± 0.45.
Under N56M stands -0.304 ± 0.31; under S26T, -0.08 ± 0.16.
As for S26Y, the figure is -0.05 ± 0.12; as for S26P, -0.694 ± 0.089; as for S26I, -0.275 ± 0.18.
As for N55S, the figure is 0.013 ± 0.051.
Consider N55G, for which the abundance fitness was -0.009 ± 0.098.
Under N55A stands 0.137 ± 0.086.
